Assay results: article PMC10250241 (Nucleic Acids Research, 2023)

B1: mms22N-3D (S126, T127, S131D) (domain or fragment, S. cerevisiae, UniProt Q06164 1-300, looked up)
chain: MDVDEPNPIVISDSEATDEEISIIYEPEFNENYLWAEENVQEASRSQKIVTERLSLDSTAGESCTPSVVTDTQVTTGLRWSLRKRKAIQKMPYSLERIKHRQLLEGYDISSFDSISNQLTLPKNADDVIHDNDILLTKRTGKPLDEQKDVTIDSIKPENSSVQSQRYDSDEEIPKKRHRTFKDLDQDIVFQSGDSTEDEQDLASTNLQNTQNDEVIFRGRVLNVRTGYRGVLPRVAWEKSLQKQQSSKVTKRKTQLLNHKGVAKRKMNRSAHIEDEEQNLLNDLIAPDDELDIEENAPPD

Assays:
SEC = biological target: the molecule itself; test: SEC
[1] = biological target: B1; test: SEC

Binder	stoichiometry N (SEC)	binding result [1]
B1	2	
His6-Eco1 (enzyme, S. cerevisiae, UniProt P43605 1-281, looked up) MKARKSQRKAGSKPNLIQSKLQVNNGSKSNKIVKCDKCEMSYSSTSIEDRAIHEKYHTLQLHGRKWSPNWGSIVYTERNHSRTVHLSRSTGTITPLNSSPLKKSSPSITHQEEKIVYVRPDKSNGEVRAMTEIMTLVNNELNAPHDENVIWNSTTEEKGKAFVYIRNDRAVGIIIIENLYGGNGKTSSRGRWMVYDSRRLVQNVYPDFKIGISRIWVCRTARKLGIATKLIDVARENIVYGEVIPRYQVAWSQPTDSGGKLASKYNGIMHKSGKLLLPVYI		binds
